Columns and labels:
[1] = target: T1, G glycoprotein of rabies virus street isolate DR Brazil (rabies virus, isolate DR Brazil …); test: cell-based or functional assay
[2] = target: T1, G glycoprotein of rabies virus street …; test: cell-based or functional assay; remark: listed apart in the source

| Binder | EC50 neutralization by RFFIT (Test A) [1] | EC50 neutralization by RFFIT [2] |
| --- | --- | --- |
| anti-rabies virus human monoclonal antibody 2B10 (antibody, V domains shown) VH: EVQLVQSGGGLVHPGGSLRLSCAGSGFTFSYFAMHWVRQAPGKGLEWVSTIGTGGGTYYADSVKGRFTISRDNAKNSLYLQMNSLRAEDMAVYYCARDNALRSFDWLFYSFDYWGQGTLVTVSS VL: EIVLTQSPGTLSLSPGERATLSCRASQSISSSYLAWYQQKPGQAPRLLIYGASSRATGIPDRFSGSGSGTDFTLTISRLEPEDFAVYYCQRYGSSYTFGQGTKLEIK | 0.004 µg/mL | 0.004 µg/mL |
| anti-rabies virus human monoclonal antibody 17C7 (antibody, V domains shown) VH: QVQLVESGGGVVQPGRSLRLSCAASGFTFSTYAMHWVRQAPGKGLEWVAVVSYDGRTKDYADSVKGRFTISRDNSKNTLYLQMNSLRTEDTAVYFCARERFSGAYFDYWGQGTLVTVSS VL: EIVLTQSPATLSLSPGERATLSCRASQSVSSYLAWYQQKPGQAPRLLIYDASNRATGIPARFSGSGSGTDFTLTISSLEPEDFAVYSCQQRNNWPPTFGGGTKVEIK | 0.222 µg/mL | 0.222 µg/mL |

— US20190002534A1 (UNIVERSITY OF MASSACHUSETTS, published 2019)
